The values that follow come from US20120064064A1.

The target in the assay is human IL1-R (human) (UniProt P14778). As to the kind of experiment: cell-based or functional assay.
UniProt P14778, sequence (P14778 18-569): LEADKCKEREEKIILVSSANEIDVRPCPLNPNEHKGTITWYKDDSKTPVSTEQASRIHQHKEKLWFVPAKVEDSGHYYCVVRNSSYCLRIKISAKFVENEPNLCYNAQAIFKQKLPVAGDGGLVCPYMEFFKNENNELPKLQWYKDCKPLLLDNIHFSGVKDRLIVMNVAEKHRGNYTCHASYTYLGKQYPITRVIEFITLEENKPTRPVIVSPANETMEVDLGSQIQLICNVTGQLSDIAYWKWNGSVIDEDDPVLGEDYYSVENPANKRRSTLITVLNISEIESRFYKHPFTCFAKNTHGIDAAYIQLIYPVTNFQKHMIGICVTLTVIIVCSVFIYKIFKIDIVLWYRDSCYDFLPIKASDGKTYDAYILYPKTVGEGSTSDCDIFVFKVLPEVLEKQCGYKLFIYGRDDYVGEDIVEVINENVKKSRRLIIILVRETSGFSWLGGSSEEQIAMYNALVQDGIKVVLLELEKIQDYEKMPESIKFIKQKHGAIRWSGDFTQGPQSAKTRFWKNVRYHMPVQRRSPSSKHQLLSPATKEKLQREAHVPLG

Consider “natural IL1-R antagonist (IL1-Ra) (from UniProt P18510 26-177) (ligand)”, for which the IL-8 release assay in MRC-5 cells (IL-1a stimulated), EC50 was found to be 74 pM.
